# Laboratory results: a protein production outcome set (Wang et al. 2014)
# Test: label from the status in PepcDB records
# 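Further: failed if final PepcDB status was selected cloned or expressed and not failed if soluble or beyond.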
row,Sequence,protein production
1,MSRAGRIAAETRAAWYAFVRRRTAVFFTFFFPVILILIFGALVGTDPTGGGLFAEPAGYYVAGYLAVVVLFTPLSRVGSEVARHRSGNRFEKLATTPLSRAEWLFAQTLVNVVVIGLASLLILGLVLLVTDAAFTFSLLVVPYVALGVALFCGLGAILGRIADSQDGAIAASNGIAIPLLFLSETFVPPALLPEWFVPLLDLSPLTYFARGLRAATYEPVANTGGTGLVGSDPYLNLVVLAAGAVVFFAAGAYALPRTD,failed
2,MSRDDNGWSKLYPDLLRSIFESLSCLDFHRAGTVCSNWYAVSRSCPLYPWRIVFRGKNSVLFDPIQDKIYTKNLLGIDLSKIHCLASYGNWILIVDPRLDFYLLNVFTRETINLPSLESSLRGDRPFRFIRNDDESGYFLELYGTKFLLTWNDFRFEKTAILWVNGRNGDYVVAWAIKQFYIFSYKKIGNDDDDKRWSITCTQCEDMAYKDNKLYVYTFDHYINILDFSGNSPKEPMEENPYLSHPFSFVDAIYKLRLAVTREGKVLIVLSLVGLDKKICIYKLNLKIGDWEIVESLGDEMLIFGHGVTIRAPDKDISGGGLKSDSICFLYDDYLSDHYLTMKRQPICGVFDLATSTITWHTRLEDLSSKICWFVPGCA,failed
3,MSRFLTFFLIVFSYALQAQVASLTNAILYRNDGNLIKAKEEIDKAVVNEKTIGMPKTWFYTGLIYKDLYQATPTDLAALTTSTAAFKKVFELEKPAGEFSKKSQEALEQIWAISINNGVNLYQLENYRQAITDFERAQGIKPGDTTAYVYAFYAANELKDQALLEKYSSALVRLNYASEAVYYIDIESLMDKNLLDSAYTVSKKALTNYPSDIALKTQQTELMVKMNKTQEAIENLKVLSTKNPKDVQLLINIGSQYTNLNDEPHAAEYYQKALAIDSVNFNANYNMAVFSLRKANEISKQIVVSDNNLKKSFKAIPTVATDPLRQNLQKELAVSTKYYNRAVLGAKDEEAKKNVKTLQDNITSFEDQFLK,failed
4,MSRKLQDSAFRLLKKAAYDIDHDRYKKAFENLDKVEKIEKEVNNPEISYHLLFFKGFAKYRIDELEESLALFGKALEISWDLFSKEPEKEDYRSFMRDTIGSIGDILLKLEDPVKAREYISPMKGIFEKTVLGFEKLLESDPENPEYLEDFLKTIEHIGLCFEAGELTGDAVPLFDKKFDLIEKLLKSETEISEHLSSLDDSLMNFGRMCEGEEYLEEEYIEEAKRVYDRAIEIYGKVLDKDPENSETKVYLSYIYRYMAGMYSDQENLVKAEECYKEALGLLESEIENEPENIPVSENIEVSENISVPKNILFSMAIADMYKDSGLIFSDTEDTTKARDYYTKARETFRGLINKYPDLLEADKNLASSLDELAELFSEIGDFESAEMCYKDELNIYENLLQKEPENPENPEYSLKLSDIYRELGDLFAEEEEIEKARAYYDKEIEIYENLHPAEADKLMLEANKADTWNQIGRLYAEEEPETAVQYHERALPIFLEAFESDPTSEFFHEELLETLTVLGTLFKENREFEKAIRMYERVLEVQKQLLEIMPPASCHDHDHDHNLNHSHNLNHSHNLNHTHDLNHDHDLNHDLDHDHEMDHDHALEHCHDLDIETTYFELGVLHSEIGDEEKASVYHRQALERFEQIIAEQSGNPEILILTSGKAFFSGMSLLEKLESENKDSSIARKYYELALRTIEKLYEAYPMNLKLQEMLASFAEQIGDIYRDADKLEETIQEYEYAYRSLKILYENDPENPKHLHHMLGALNNIGIGYSVTDQQEKGKECFEKALALNESLAKSNPEDLNPLRRNFLLFSNYANLLEELGDSKTAKEYRKKAEELDAKLTEEDPEWTSLVEEL,failed
5,MSRKPLIAGNWKMNLNHYEAIALVQKIAFSLPDKYYDRVDVAVIPPFTDLRSVQTLVDGDKLRLTYGAQDLSPHDSGAYTGDVSGAFLAKLGCSYVVVGHSERRTYHNEDDALVAAKAATALKHGLTPIVCIGEHLDVREAGNHVAHNIEQLRGSLAGLLAEQIGSVVIAYEPVWAIGTGRVASAADAQEVCAAIRKELASLASPRIADTVRVLYGGSVNAKNVGDIVAQDDVDGGLVGGASLDGEHFATLAAIAAGGPLP,not failed
6,MSRKSAPSSTAAPAPKLAADRIRATARELFYREGIRAVGVDAIVSAAGVTKPSLYRSFSSKDELAASYLRDYETEFWSRFDAGAQRHPDDPRAQLRLYLESLAERAANAGPYRGCGLSNAAVEYPDPDHPARLVAEAHKRELRRRLIDMARRMGAREPEVLGDGLMLLIEGAFISGQLFHGDGPARHVARLADRLIEASL,failed
7,MSRLSAAVVAIDGPAGTGKSSVSRRLARELGARFLDTGAMYRIVTLAVLRAGADPSDIAAVETIASTVQMSLGYDPDGDSCYLAGEDVSVEIRGDAVTRAVSAVSSVPAVRTRLVELQRTMAEGPGSIVVEGRDIGTVVFPDAPVKIFLTASAETRARRRNAQNVAAGLADDYDGVLADVRRRDHLDSTRAVSPLQAAGDAVIVDTSDMTEAEVVAHLLELVTRRSEAVR,not failed
8,MSRMMPARVRSEGIALYAKGFLNDPIETDFKLTAEIDGEEVSYDLDGAQDSCTCAVFQQNHRYCKHIAAIEEYLKNQDKGSQETKDKEIKGAERALFGENVAFLDAVNGETQLNFNTDQYSIEVQIEDNSQLYDYFSMDYFLYFDLKLRSKNLGRSYVIKDIPYFLRALKNYSQYSLGSLHYIDLFFDNFDEASQEFLTFLLKIDSKSDEALTKSLYIKNGRYLNIPFLFLEEAMDLVSALENYQLQITGRTVNYFTFIALDNDSEIFKFKVESQQDYIELKLYSEDYHNFYDYSLLYANNVFYKLNQEQRRLLLVLDKQFAKKSQIKFSYADKDKLAQALQQLSTLGEIEAPDHFVVRPFDAKFTFDLLEDQTISLAMTFDYGSFSIDSFHDLETLEFSRDLRKEQKIFALMERLQFAKAFNSSLNIPENLSEHFFLKILPAFQKLGQIELSPTLRNMRMDEVPEIHIDSQGGLLDISFDIPQVEDGEFANVIAKLQENAEFYISESGKFYHFNEKFDRLKAALNELDDQFVIQGSSLHVNINRSFQISKIFENIGGASFSEKFKSLYQHLTHPEEFPYEKPEHIKASLRSYQETGVRWMSMLSHYNLGGILADDMGLGKTVQAITFILSNLKKDESVLITAPASLTYNWASEFEKFTDEIDFAVIDGTKAERSKEIQEKHQIYITSYGSFLKDFEDYQDKKLNYLLLDEAQVVKNYSSKTNKSLSALNVEHTFALSGTPLENRIEEIWAIFQVVMPGFLPKREKFNKMEPSVISRLIQPFIMRRKKEDVLEELPEKMEITVYNQLADDQKVIYLAQLELMQKQVLEMDSAALSRSRIEILAGITRLRQICNTPALFMDDYKGSSGKLERLRELLAQIKDSGHRPLIFSQFTKVFPHIEKLMEEQEMTAYKLTGSTPIKDRLSMVQAFNAGSRDAFLVSLKAGGVGLNLTSADVVILVDLWWNPAVEEQAIARAHRMGQKNTVEVIRLITKGTIEEKIMEIQERKKDLIANVLEGDTVDKVLSEAEIREILGV,failed
9,MSRNEVLLNGDINFKEVRCVGDNGEVYGIISSKEALHIAQNLGLDLVLISASAKPPVCKVMDYNKFRYQNEKKIKEAKKKQKQIEIKEIKLSTQIAQNDINYKVKHAREFIESNKHVKFKVVLKGRESQNSKAGLDVLFRVQTMMQDLANPEKEPKTEGRFVSWMFVPKAKEAPKNEKKTKENNPPFNRINLMKGENHAKNED,failed
10,MSRNKGVQYLSSSEHSLKDYLPILSMAGLILIVQVLALLLSMPMEINDMQAFEDPTQVSNSIYYIVMILVFTLFVLIAIKKNMKWIISLLIYLAIVSTLYYVFFALFTLIPALAGLENIASLLLSIGLTVLLYKYPEWYVIDLLGVCIAGGVSALIGISLSIIPVVVLLILLAVYDAISVYKTKHMIAMAEGVMDLKLPILFIIPKHLNYSFITEGFKEGEKREAFFMGLGDAVMPTLLVVSANVFLENGGLSYPVLGAMLGTLVGHIFLSILVMRGKPQAGLPFLNSGAIIGFFIGVLFSGASIL,failed
11,MSRPPTTPSAPQTADLVRPARRGDLDGLLALARAADAGMTNLPADRAALDDRLAASEQALIDPETRNAGAAVYLVLERQGRVIGAACVFARIGVAQPFYSYRVTRLTQLSPDLGKRVEMSVLTLVNDLTDQAEVGGLFVAPDAR,failed
12,MSRRGLLLMGQCMPCIKQNASKIRIRRMELDKNLNMYFKKDEFYFAHDPQKVCKTGDVVLIRELPERLTRLITHNVEKVVYPLGDITDPLTGKKVVVGNYREDIEMANQLFGKSEKAFDYEKAPPRGRLEGTKDFTHGETYIKYHEDGKDQPFAV,failed
13,MSRRNGGLFPTDLQTIARDIGSLLLMEAGLMTITAAVALGFQEFYAAFGFFTAAGMTAGVGGLANRGFSDAPAPQMKHGMVIAAGGWLLVAAFGSLPFLLTAWFTPPAVMDTFVPVGTDTSTWAPIRVGGTTTLSSLAYFRNPLHAFFESMSGWTGSGLTMAIHEPSLPRAVQWWRSFIQYVGGVGVIVLTVSILSRPGSGSYALYQSEAREEKIHPSVVSTVRTVWKLVVGYTVLSFALLFGAILASDSEYAESLPLWEVAWQALNHAMTGLTTGGFSVTDNSIATYNSPLVETVLLPIMILGAIAFPVHYVVLHDRQVRELVTDLQTRWLFILLTVGVVGLSVQNAWSVPATTEAFATQSFLPVSVPMLNAAQLDAVRDSTFQWVSALSCTGFQSAPIGRWLAGGKVLVAGAMVLGGAAGSTVGGIKIIRGYTIVRGIIWQFSRVFLPTNAVITARIGNRTLDRESMEREFSEAAIVTLLWLIILIISSVVLTNVAGPAFGYADALFEVASAQGNVGLSSGITGPSMPAIAEGMFVLNMWVGRLEIIPILVFIRAGLYGLDP,failed
14,MSRRYWQLDVFAERPLTGNGLAVFDDASALDDAAMQAWTRELRQFESIFLLPGDDPRAFRARIFTLEEELPFAGHPLLGAAALLHHLRGGDNEQHWTLHLASKSVALRSVRAGSGFYAEMDQGRAEFGATPDAGTCRWFAEAFSLSANDLSGHPPRVVSTGLPYLLLPVTAEALGRARQVNDLQEALDKLGAAFVYLLDVDGREGRTWDNLGLVEDVATGSAAGPVAAYLVEYGLAARGEPFVLHQGRFLERPSRLDVQVATDGSVRVGGHVQLLARAELLTSA,not failed
15,MSRSQLTILTNICLIEDLETQRVVMQYRAPENNRWSGYAFPGGHVENDEAFAESVIREIYEETGLTIQNPQLVGIKNWPLDTGGRYIVICYKATEFSGTLQSSEEGEVSWVQKDQIPNLNLAYDMLPLMEMMEAPDKSEFFYPRRTEDDWEKKIF,not failed
16,MSRTEGSHEAEQDLTMIVGTYTSGDSKGLYSFRFNEENGTATALSEAEVENPSYLVPSADGKFIYAVSEFSNEQAAANAFAFNKEEGTFRLLNTQKTGGEDPCYIITNGSNVVTANYSGGSISVFPIDKDGSLLPASEVVKFKGSGADKERQEKPHLHCVRITPDGKYLFADDLGTDQIHKFIVNPNAKADNEDVFLKEGSPASYKVEAGSGPRHLTFAPNGSYAYLINELSGTVIAFEYNDGELKEIQTIAADTVGAKGSGDIHISPDGKFLYASNRLKADGLAIFSIHPENGMLTKVGYQLTGIHPRNFIITPNGKYLLVACRDSNVIQVYERDTDTGLLTDIRKDIKVDKPVCIKFVPLEHHHHHH,not failed
17,MSRTMAEVNRLLKKTAGLINKDTESPFQGEFRVGVDLGTADIQTIVLDADGNPLAGFMDWANVVRDGVVVDFFGASQIVREQVRRASAKLGIQIEQVTTSFPPGTDSRISTNVIEAAGLEVAGVIDEPSSVAQLLQLDHAAVVDIGGGTTGTAIIEEGRVVRSMDDATGGRHITLTLAGHFGLPYEEAEEMKRTSKDLALCRLAAPVIAKMADIVHGHIAGHKVPAIYLTGGSCALPGFLEVFAAEFPGIEIVMPSHPLYLTPLAIATYSDVLQTREQRVGLEHHHHHH,failed
